The results in this text go back to doi:10.1101/2023.08.10.552651.

For test [1], the target named is SbtB ΔT-loop (T-loop Arg43-Ser52 truncation variant of SbtB) (Synechocystis sp. PCC 6803). As to the kind of experiment: cryo-EM structure.
Test [2] has as its target sodium-dependent bicarbonate transporter SbtA (Synechocystis sp. PCC 6803). The test can be described thus: cryo-EM structure.

In turn, “SbtB ΔT-loop (T-loop Arg43-Ser52 truncation variant of SbtB) (natural protein)” returned a stoichiometry N in test [1] of 3.

Turning to “sodium-dependent bicarbonate transporter SbtA (natural protein)”, the stoichiometry N in test [2] came out at 3.
